The nanobody polyreactivity screen of Harvey et al. (2022)

Assay: yeast display, Sf9 membrane polyspecificity reagent, FACS + sequencing; frameworks hold sequencing errors
Outline: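 Genes from sorted yeast were amplified by colony PCR, read by MiSeq 2 × 250 sequencing and filtered on CDR length. These cells carried a synthetic nanobody library in Saccharomyces cerevisiae BJ5465 and were sorted by FACS into low and high (top ~1%) gates on anti-HA and streptavidin fluorescence. Polyreactivity is labelled according to the gate of origin.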

Sequence	polyreactivity (PSR sort gate)
QVQLVESGGGLVQAGGSLRLSCAASGHTFAYNAMGWYRQAPGKEREFVAAITWSTDNTYYADSVKGRFTISRDYAKYTVYLQMNSLKPEDTAVYYCAVDVYFYYRHYGYWGQGTQVTVSS	low polyreactivity
QVQLVESGGGLVQAGGSLRLSCAASGHTFRGYDMGWYRQATGKQRELFASISSSGGSTYYADSVKGRFTISRDNAKNTVYLQMNSLKPEDTAVYYCATRDGVVDTEPDQSYAVELDYWGQGTQVTVSS	low polyreactivity
QVQLVESGGGLVQAGGSLRLSCAASGHTFTINAMGWYRQAPGKERELVAAITFSGGRTYYADSVKGRFTISRDNAKNTVYLQMNSLKPEDTAVYYCAADNPGGSIYDYWGQGTQVTVSS	low polyreactivity
QVQLVESGGGLVQAGGSLRLSCAASGHTLAVNAKGWYRQATGKERELVAAITRSGVTTSYADSVKGRFTISRDNAKNTVYLQMNSLKPEDTAVYYCAAQLDASYLTGGWRRHYNYWGQGTQVTVSS	low polyreactivity
QVQLVESGGGLVQAGGSLRLSCAASGHTLGSYAMGWYRQAPGKERELVAAISSRGGTYYADSVKGRFTISRDNAKNTGYFLMNSLKPDDTAVYYWDAVSGSSKMYYWGQGTQVTVSS	high polyreactivity
QVQLVESGGGLVQAGGSLRLSCAASGIFDPNAMGWYRQAPGKERELVAAITSGGSTNYADSVKGRFTISRDNAKNTVYLQMNSLKPEDTAVYYCNADSYDEIKYGYWGQGTQVTVSS	low polyreactivity
QVQLVESGGGLVQAGGSLRLSCAASGIFDYYGMGWYRQAPGKERELVAAITWNGGSTYYADSVKGRLTISRDNAKNTVYVQMNSLKPEDTAVYYCATTDWYHSPGYDYRGQGTQVTVSS	low polyreactivity
QVQLVESGGGLVQAGGSLRLSCAASGIFGRNAMGWYRQAPGKERELVAAITGSGGRTYYADSVKGRFTISRDNAKNTVYLQMNSLKPEDTAVSYCAASIPSTHGYAYDYWGQGNQVTVSS	high polyreactivity
QVQLVESGGGLVQAGGSLRLSCAASGIFLGYALGWYRQAPGKERELVAAITSGDSTYYADSVKGRFTISRDNAKNTVYLQMNSLKPEDTAVYYCAKTRYSWPRVWYNYWGQGTQVTVSS	low polyreactivity
QVQLVESGGGLVQAGGSLRLSCAASGIFRGYAMGWYRQAPGKERELVAAISWGGGSTYYADSVKGRFTISRDNAKNTVYLQMNSLKPEDTAVYYCIAADFGWDYAYYYWGQGTQVTVSS	low polyreactivity
QVQLVESGGGLVQAGGSLRLSCAASGIFRQNAMGWYRQAPGKERELVAGISQSGGSTYYADSVKGRFTISRDNAKNTVYLQMNSLKPEDTSVYYCALVSIWGYDYWGQGTQVTVSS	low polyreactivity
QVQLVESGGGLVQAGGSLRLSCAASGIFRRYAMGWYRQAPGKERELVAAISSSGGSTDYADSVKGRFTISRDNAKNTVYLQMNSLKPEDTAVYYCNAYDQHGWWCYAYDYWGQGTQVTVSS	high polyreactivity
QVQLVESGGGLVQAGGSLRLSCAASGIFRRYAMGWYRQAPGKERELVAAISSSGGSTDYADSVKGRFTISRDNAKNTVYLQMNSLKPEDTAVYYCNAYDQHGWWSYAYDYWGQGTQVTVSS	high polyreactivity
QVQLVESGGGLVQAGGSLRLSCAASGIFVRYAMGWYRQAPGKEREMVAAISFSDDSTYYADSVKGRFTISRDNAKNTVYLQMNSLKPEDTAVYYCNARLERTPCLYLYGSWGQVTQVTVSS	low polyreactivity
QVQLVESGGGLVQAGGSLRLSCAASGIFVTYAMGWYRQAPGTERELVAAIRYSGDSTYYADSVKGRFTISRDNAKNTVYLQMNSLKPEETAVYYCAATKGWSRYEYWGQGTQVTVSS	low polyreactivity
QVQLVESGGGLVQAGGSLRLSCAASGIFYFYAMGWYRQAPGKERELVAAITSSGGNTTYADSVKGRFTISRDNAKNTVYLQMNSLKPEDTAVYYCNAEAYSYGFDYWGQRTQVTVSS	low polyreactivity
QVQLVESGGGLVQAGGSLRLSCAASGIICPENAMGWYRQAPGKERELVAAISKSGGRTYYADSVKGRFTISRDNAKNTVYLQMNSLKPEDTAVYYCAKVPYAYSRDRSAEDSWGQATQVTVSS	high polyreactivity
QVQLVESGGGLVQAGGSLRLSCAASGIIFAFYAMGWYRQAPGKERELVATISKSGGRTYYADSVKGRFTISRDNAKNTVYLQMNSLNPEDTAVYYCAARIQYAFGADYYWGQGTQVTVSS	low polyreactivity
QVQLVESGGGLVQAGGSLRLSCAASGIIFAGNTMGWYIQAPWKERELVAAITWSGGSTYYADSVKGRFTISRDNAKNTVYLQMNSQKPEDTAVYYCAAYYGGYGWDDKYDYWGQGTQVTVSS	low polyreactivity
QVQLVESGGGLVQAGGSLRLSCAASGIIFAQYTMGWYRQAPGKERELVAAINRNGGSTYYADSVKGRFTISRDNAKNTVYLQMNSLKPEDTAVYYCNADALGFRYDYWGQGTQVTLSS	low polyreactivity
QVQLVESGGGLVQAGGSLRLSCAASGIIFARYAMGWYRQAPGKERELVAVISGSGGSTYYADSVKGRFTISRDNAKNTVYLQMNSLKPEDTAVYYCNAEFESGHDLDWYDYWGQGTQVTVSS	low polyreactivity

Sequence	polyreactivity (PSR sort gate)
QVQLVESGGGLVQAGGSLRLSCAASGIIFASNAMGWYIQAPGKERELVATINWTDSTTYYADSVKGRFTISRDNAKNNVYLLMNSLKPEDTAGYYCNAVPHWFYRYGRYDYWGQGTQVTVSS	low polyreactivity
QVQLVESGGGLVQAGGSLRLSCAASGIIFASNGMGWYRQAPGKERELLAAISSGGSTNYADSVKGRFTISRDNAKNTVYLQMNSLKPEDTAVYYCSTSGPQYYSRNFDYWGLGTQVTVSS	low polyreactivity
QVQLVESGGGLVQAGGSLRLSCAASGIIFASYAMGWYRQAPGKERELVAAITWDGDSTYYADSVKGRFSISRDNAKNTVYLQRNSLKPEDTAVYYCAADGVYVGFYGYDYDYWGQGTQVTVSS	low polyreactivity
QVQLVESGGGLVQAGGSLRLSCAASGIIFAVYTMGWYRQARGKERELVAALSSGGSTYYADSVQGRFTISRDNAKNTVYLQMNSLKPEDTAVYYCNAQYFWLWLTYDFDYWGQGTQVTVSS	high polyreactivity
QVQLVESGGGLVQAGGSLRLSCAASGIIFAWYAMGWYRQAPGKERELLAAISWSGGSTYYADSVKGRFTISRDNAKNTVYLQMNILKPEDSAVYYCAPFPRRQGKYDYWGKGTQVTVSS	high polyreactivity
QVQLVESGGGLVQAGGSLRLSCAASGIIFAWYAMGWYRQAPGKERELVAAINWSGGSTYYADSVKGRFTISRDNAKNTVYLQMNSLKPEDTAVYYCNADFQDRTDDYDYWGQGTQVTVSS	low polyreactivity
QVQLVESGGGLVQAGGSLRLSCAASGIIFAWYAMGWYRQAPGKERELVAAISWSGGSTYYADSVKGRFTISRDNAKNTVYLQMNSLKPEDTAVYYCAADSDYGGYDYWGQGTQVTVSS	high polyreactivity
QVQLVESGGGLVQAGGSLRLSCAASGIIFAWYAMGWYRQAPGKERELVAAISYSGGTTYYADSVKGRFTISRDNAKNTVYLQMNSLKPEDTAVYYCAARLHHFFTYDYWGQGTQVTVSS	low polyreactivity
QVQLVESGGGLVQAGGSLRLSCAASGIIFCDNAMGWYRHAPGKERELVAAITIGGTSTYYADSVKGRFTISRDNAKNTVYLQMNSLKPEDTAVYYCAKTILYDCDYWGQGTQVTVSS	low polyreactivity
QVQLVESGGGLVQAGGSLRLSCAASGIIFDCNAMGCYRQAPGKERELVAANTSSTDSTYYADSVKGRFTISRDNAKNTVYLQMNILKPEDTAVYYCAAAYPSKTFDYWGQGTHVTVSS	low polyreactivity
QVQLVESGGGLVQAGGSLRLSCAASGIIFDDYAMGWYRQAPGKERELVAAIRSGVSTNYADSVKGRFTISRDNAKNTVYLQMNSLKPEDTAVYYGAARNTAPYFTEYDYWGQGTQVTVSS	low polyreactivity
QVQLVESGGGLVQAGGSLRLSCAASGIIFDDYAMGWYRQAPGKERELVAAISVSGGSTYNADSVKGRFTISRDNAKNTVYLQMNSLKPEDTAVYYCAARLIVGRFLRYDYWGQGTQVTVSS	high polyreactivity
QVQLVESGGGLVQAGGSLRLSCAASGIIFDDYAMGWYRQAPGKERELVAAITDSGGSTYYADSVKGRFTISRDNAKNTVYLQMNSLKPEVTAVYYCAARTQRRVNRVGYRSNYYYWGQGTQVTVSS	low polyreactivity
QVQLVESGGGLVQAGGSLRLSCAASGIIFDEYAMGWYRQAPGKERELVAAITWSGGSTYYADSVKGRFTISRDNAKNTVYLQMNSLKPEDTAVYYCNAVQSDEIAYGDTRLDYWGQGTQVTVSS	low polyreactivity
QVQLVESGGGLVQAGGSLRLSCAASGIIFDGNAMGWYRQAPGKERELVASITSDSSTNYADSEKGRFTISRDNAKNTVYLQMNSLKPADTAVYYCAADHWIAPRRDYWGQGTQVTVSS	low polyreactivity
QVQLVESGGGLVQAGGSLRLSCAASGIIFDHYAMGWYRKAPGKERELVAAITSGGRTYYADSVKGRFTISRDNAKKTVYLQMNSLKPEDTAVYYCNARFRSSARLAYYYWGQGTQVTVSS	high polyreactivity
QVQLVESGGGLVQAGGSLRLSCAASGIIFDLYTKGWYRQAPGKEREFVATINWGGGNTYYADSVKGRFTISRDNAKNTVYLQMNSLKPDDTAVYYCAAAYTWYGYSQAYYYWGQGSQVTVSS	low polyreactivity
QVQLVESGGGLVQAGGSLRLSCAASGIIFDSNVMGWYRQAPGKERELVAAISRSGSRTYYADSVKGRFTISRDNSKNTVYLEMNSLKPEDTAVYYCATDSHTADEYEHWGQGTQVTVSS	high polyreactivity
QVQLVESGGGLVQAGGSLRLSCAASGIIFDTNDIGWYRLGPGKERELVATITQRGGTTYYADSVKGRFTISRDNATNTVYLQMNSLKPEDTAVYYCDADRRSKYDYWGQGTQVSVSS	low polyreactivity
QVQLVESGGGLVQAGGSLRLSCAASGIIFDWYTMGWYRQAPGKERELVAAISWRGGRTYYADSVKGRFTISRDNAKNTVYLQMNSLKPEDTAVYYCAAEAPVQPFYVFNTGIYELDYWGQGTQVTVSS	low polyreactivity
